Measured values as given in patent US10800847.

What was measured:
HLA-B*4402 (B44) (human) = assay: Luminex single-antigen beads (iBeads), culture supernatant
HLA-B*5101 (B51) (human) = assay: as above
HLA-B*4101 (B41) (human) = assay: as above
HLA-B*4201 (B42) (human) = assay: as above
HLA-B*4403 (B44) (human) = assay: as above
HLA-B*4601 (B46) (human) = assay: as above
HLA-B*4006 (B61) (human) = assay: as above
HLA-B*5001 (B50) (human) = assay: as above
HLA-B*4501 (B45) (human) = assay: as above
HLA-B*3501 (B35) (human) = assay: as above
HLA-B*3701 (B37) (human) = assay: as above
HLA-B*3901 (B39) (human) = assay: as above
HLA-B*4001 (B60) (human) = assay: as above
HLA-B*4701 (B47) (human) = assay: as above
HLA-B*4901 (B49) (human) = assay: as above
HLA-B*4002 (B61) (human) = assay: as above
HLA-B*4801 (B48) (human) = assay: as above
HLA-B*3801 (B38) (human) = assay: as above
[1] = molecular target: HLA-A*0206 (A2) single antigen bead (human); assay: Luminex single antigen bead assay (IBEADS), culture supernatant
[2] = molecular target: HLA-A*3002 (A30) single antigen bead (human); assay: as above
[3] = molecular target: HLA-A*2402 (A24) single antigen bead (human); assay: as above
[4] = molecular target: HLA-A*0301 (A3) single antigen bead (human); assay: as above
[5] = molecular target: HLA-A*2501 (A25) single antigen bead (human); assay: as above
[6] = molecular target: HLA-A*3001 (A30) single antigen bead (human); assay: as above
[7] = molecular target: HLA-A*1102 (A11) single antigen bead (human); assay: as above
[8] = molecular target: HLA-A*2601 (A26) single antigen bead (human); assay: as above
[9] = molecular target: Negative control beads coated with serum albumin (HSA/BSA) (human or bovine); assay: as above
[10] = molecular target: HLA-A*1101 (A11) single antigen bead (human); assay: as above
[11] = molecular target: HLA-A*0101 (A1) single antigen bead (human); assay: as above
[12] = molecular target: HLA-A*2301 (A23) single antigen bead (human); assay: as above
[13] = molecular target: HLA-A*2403 (A24) single antigen bead (human); assay: as above
[14] = molecular target: HLA-A*2901 (A29) single antigen bead (human); assay: as above
[15] = molecular target: HLA-A*0201 (A2) single antigen bead (human); assay: as above
[16] = molecular target: HLA-A*2902 (A29) single antigen bead (human); assay: as above
[17] = molecular target: HLA-A*0203 (A2) single antigen bead (human); assay: as above

For TFL Anti-HLA-E Mab PTG-006 (antibody), the MFI (HLA-B*4402 (B44) (human)) was 32 MFI, the MFI (HLA-B*5101 (B51) (human)) was 45 MFI and the MFI (HLA-B*4101 (B41) (human)) was 89 MFI. For the same substance, the MFI (HLA-B*4201 (B42) (human)) was 32 MFI, the MFI (HLA-B*4403 (B44) (human)) was 18 MFI and the MFI (HLA-B*4601 (B46) (human)) was 23 MFI. It also gave an MFI (HLA-B*4006 (B61) (human)) of 41 MFI, an MFI (HLA-B*5001 (B50) (human)) of 67 MFI and an MFI (HLA-B*4501 (B45) (human)) of 18 MFI. The MFI (HLA-B*3501 (B35) (human)) was 60 MFI, the MFI (HLA-B*3701 (B37) (human)) was 43 MFI and the MFI (HLA-B*3901 (B39) (human)) was 21 MFI. The MFI (HLA-B*4001 (B60) (human)) was 28 MFI, the MFI (HLA-B*4701 (B47) (human)) was 38 MFI and the MFI (HLA-B*4901 (B49) (human)) was 71 MFI. The MFI (HLA-B*4002 (B61) (human)) was 33 MFI, the MFI (HLA-B*4801 (B48) (human)) was 21 MFI and the MFI (HLA-B*3801 (B38) (human)) was 24 MFI. The MFI [1] was 27 MFI, the MFI [2] was 69 MFI and the MFI [3] was 42 MFI. The MFI [4] was 36 MFI, the MFI [5] was 24 MFI and the MFI [6] was 45 MFI. It also gave an MFI [7] of 60 MFI, an MFI [8] of 57 MFI and an MFI [9] of 6 MFI. The MFI [10] was 51 MFI, the MFI [11] was 28 MFI and the MFI [12] was 36 MFI. It also gave an MFI [13] of 53 MFI, an MFI [14] of 115 MFI and an MFI [15] of 31 MFI. The MFI [16] was 23 MFI and the MFI [17] was 31 MFI.
